Several values for one entry are separate records, joined by “and”; a condition that tells them apart may be missing. Equal values may be shown once.

For assay [1], the target named is T1, norovirus GII.10 VLPs (full-length capsid protein VP1, virus-like particles) (norovirus GII.10 (Vietnam026)).
T1 chain: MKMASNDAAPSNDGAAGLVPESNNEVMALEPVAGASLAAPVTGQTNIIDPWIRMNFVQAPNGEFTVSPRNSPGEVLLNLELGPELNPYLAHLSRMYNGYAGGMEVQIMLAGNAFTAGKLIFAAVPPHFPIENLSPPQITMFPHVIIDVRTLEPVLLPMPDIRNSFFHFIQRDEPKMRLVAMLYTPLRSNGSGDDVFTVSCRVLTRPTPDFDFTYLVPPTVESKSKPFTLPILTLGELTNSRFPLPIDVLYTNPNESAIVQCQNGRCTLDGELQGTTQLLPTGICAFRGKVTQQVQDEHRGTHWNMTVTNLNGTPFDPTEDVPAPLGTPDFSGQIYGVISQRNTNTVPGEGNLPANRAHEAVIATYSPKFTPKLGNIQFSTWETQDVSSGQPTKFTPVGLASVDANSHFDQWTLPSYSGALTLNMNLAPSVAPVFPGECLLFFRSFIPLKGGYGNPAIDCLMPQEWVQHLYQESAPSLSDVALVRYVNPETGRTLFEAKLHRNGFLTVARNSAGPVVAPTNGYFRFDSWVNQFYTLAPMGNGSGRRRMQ

Assay [2] concerns the target T2, norovirus GII.4 2006 VLPs (full-length capsid protein VP1, virus-like particles) (norovirus GII.4 (Saga4 2006)).
T2 construct: mature; also called GII.4 VLPs
Put plainly: blocking ELISA: GII.4 VLPs pretreated with Nano-26, binding to coated PGM. A general note: ELISA stands for enzyme-linked immunosorbent assay.

B1: Nano-26 (VHH)
VHH: QVQLQESGGGLVQPGGSLRLSCTAPRIIFFMYDVGWYRQAPEKQRELVAQINSDVSTKYADSVKGRFTISRDNAKRTVYLQMNDLKPEDAAVYYCNVRRASADYWGQGTQVTVSS
notes: also called Nanobody Nano-26; N26; not shown: His-tag implied by detection with an anti-His-tag antibody (pHEN6C vector); its
For orientation: IC50 means the concentration that inhibits the measured activity by half. On to B1, for which the half-inhibitory concentration (IC50) was 6.6 mg/L and 3.1 mg/L and 2.6 mg/L and 4.3 mg/L in assay [1]; 2.4 mg/L in assay [2].

Source of the values: US20200231656A1 (UNIVERSIT T HEIDELBERG, published 2020).
